How the values were obtained:
[1] = target: T1, GST-Cdc25B (C terminal peptide: 281-381aa), P30305
T1 chain: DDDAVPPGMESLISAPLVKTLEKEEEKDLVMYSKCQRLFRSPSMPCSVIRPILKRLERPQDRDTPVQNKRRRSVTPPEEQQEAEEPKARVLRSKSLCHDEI

[2] = target: GST-Cdc25B S309A [GST: P08515]
[3] = target: T2, GST-Cdc25C (C terminal peptide: 195-260aa), P30307
T2 chain: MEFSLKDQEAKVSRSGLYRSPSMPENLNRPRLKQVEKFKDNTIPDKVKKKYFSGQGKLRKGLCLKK

[4] = target: GST-Cdc25C S216A [GST: P08515]
[5] = target: GST-fusion recombinant protein containing human Weel (full-length protein), P30291
GST-fusion recombinant protein containing human Weel (full-length protein), P30291, sequence (P30291 whole entry, looked up, the tested form may be a part): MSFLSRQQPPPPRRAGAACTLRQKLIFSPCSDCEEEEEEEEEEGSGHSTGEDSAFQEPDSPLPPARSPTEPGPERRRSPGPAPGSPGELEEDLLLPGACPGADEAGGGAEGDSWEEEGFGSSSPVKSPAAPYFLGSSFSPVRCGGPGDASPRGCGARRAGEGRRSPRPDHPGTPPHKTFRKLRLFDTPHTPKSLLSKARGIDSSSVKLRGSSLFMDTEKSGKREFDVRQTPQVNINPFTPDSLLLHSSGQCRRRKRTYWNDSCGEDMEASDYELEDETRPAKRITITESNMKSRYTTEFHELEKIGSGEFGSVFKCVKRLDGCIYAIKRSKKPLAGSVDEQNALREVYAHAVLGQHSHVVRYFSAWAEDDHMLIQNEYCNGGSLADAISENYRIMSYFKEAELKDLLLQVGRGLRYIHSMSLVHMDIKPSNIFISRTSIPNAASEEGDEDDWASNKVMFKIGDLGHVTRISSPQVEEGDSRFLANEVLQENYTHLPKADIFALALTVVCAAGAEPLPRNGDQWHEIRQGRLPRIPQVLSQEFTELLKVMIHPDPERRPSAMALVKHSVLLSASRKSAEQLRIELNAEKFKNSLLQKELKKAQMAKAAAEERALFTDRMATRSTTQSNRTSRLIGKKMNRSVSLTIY

| Protein | in vitro kinase assay (32P autoradiography) [1] | in vitro kinase assay (32P autoradiography) [2] | in vitro kinase assay (32P autoradiography) [3] | in vitro kinase assay (32P autoradiography) [4] | in vitro kinase assay (32P autoradiography) [5] |
| --- | --- | --- | --- | --- | --- |
| hCdr2 wild-type (wt) recombinant protein with c-Myc tag (protein) MSSGAKEGGGGSPAYHLPHPHPHPPQHAQYVGPYRLEKTLGKGQTGLVKLGVHCITGQKVAIKIVNREKLSESVLMKVEREIAILKLIEHPHVLKLHDVYENKKYLYLVLEHVSGGELFDYLVKKGRLTPKEARKFFRQIVVCAGLCHSYSICHRDLKPENLLLDEKNNIRIADFGMASLQVGDSLLETSCGSPHYACPEVIKGEKYDGRRADMWSCGVILFALLVGALPFDDDNLRQLLEKVKRGVFHMPHFIPPDCQSLLRGMIEVEPEKRLSLEQIQKHPWYLGGKHEPDPCLEPAPGRRVAMRSLPSNGELDPDVLESMASLGCFRDRERLHRELRSEEENQEKMIYYLLLDRKERYPSCEDQDLPPRNDVDPPRKRVDSPMLSRHGKRRPERKSMEVLSITDAGGGGSPVPTRRALEMAQHSQRSRSVSGASTGLSSSPLSSPRSPVFSFSPEPGAGDEARGGGSPTSKTQTLPGPPGSPRSSGGTPLHSPLHTPRASPTGTPGTTPPPSPGGGVGGAAWRSRLNSIRNSFLGSPRFHRRKMQVPTAEEMSSLTPESSPELAKRSWFGNFISLDKEEQIFLVLKDKPLSSIKADIVHAFLSIPSLSHSVLSQTSFRAEYKASGGPSVFQKPVRFQVDISSSEGPEPSPRRDGSGGGGIYSVTFTLISGPSRRFKRVVETIQAQLLSTHDQPSVQALADEKNGAQTRPAGAPPRSLQPPPGRPDPELSSSPRRGPPKDKKLLATNGTPLP | the hCdr2 wt protein severely phosphorylated the GST-Cdc25B (C terminal peptide: 282-381aa) | When GST-Cdc25B S309A was used as a substrate, even the hCdr2 wt protein did not provide phosphorylation action | the hCdr2 wt protein phosphorylated GST-Cdc25C (C terminal peptide: 195-260aa) | When GST-Cdc25C S216A was used as a substrate, phosphorylation of the hCdr2 wt protein did not occur | the human Weel could not be phosphorylated |
| hCdr2 K59A kinase-dead mutated protein with c-Myc tag (protein) MSSGAKEGGGGSPAYHLPHPHPHPPQHAQYVGPYRLEKTLGKGQTGLVKLGVHCITGQAVAIKIVNREKLSESVLMKVEREIAILKLIEHPHVLKLHDVYENKKYLYLVLEHVSGGELFDYLVKKGRLTPKEARKFFRQIVVCAGLCHSYSICHRDLKPENLLLDEKNNIRIADFGMASLQVGDSLLETSCGSPHYACPEVIKGEKYDGRRADMWSCGVILFALLVGALPFDDDNLRQLLEKVKRGVFHMPHFIPPDCQSLLRGMIEVEPEKRLSLEQIQKHPWYLGGKHEPDPCLEPAPGRRVAMRSLPSNGELDPDVLESMASLGCFRDRERLHRELRSEEENQEKMIYYLLLDRKERYPSCEDQDLPPRNDVDPPRKRVDSPMLSRHGKRRPERKSMEVLSITDAGGGGSPVPTRRALEMAQHSQRSRSVSGASTGLSSSPLSSPRSPVFSFSPEPGAGDEARGGGSPTSKTQTLPGPPGSPRSSGGTPLHSPLHTPRASPTGTPGTTPPPSPGGGVGGAAWRSRLNSIRNSFLGSPRFHRRKMQVPTAEEMSSLTPESSPELAKRSWFGNFISLDKEEQIFLVLKDKPLSSIKADIVHAFLSIPSLSHSVLSQTSFRAEYKASGGPSVFQKPVRFQVDISSSEGPEPSPRRDGSGGGGIYSVTFTLISGPSRRFKRVVETIQAQLLSTHDQPSVQALADEKNGAQTRPAGAPPRSLQPPPGRPDPELSSSPRRGPPKDKKLLATNGTPLP | the weak phosphorylating action exhibited by the mock and hCdr2 K59A |  | but failed to phosphorylate the hCdr2 K59A protein |  |  |
